{"source": "the RNAGym collection of RNA variant scans (doi:10.7554/elife.80360)", "parents": {"B1": {"name": "HDV Ribozyme (parent)", "chain": "GGCCGGCAUGGUCCCAGCCUCCUCGCUGGCGCCGGCUGGGCAACAUUCCGAGGGGACCGUCCCCUCGGUAAUGGCGAAUGGGACCCA"}}, "data": [{"variants_of": "B1", "experiment": "self-cleavage, relative activity (ratio to wild type); higher = more cleavage; co-transcriptional", "values": [{"variant": "GGCCGGCAUGGUCCCAGCCUCCUCGCGCGCGCCGGCUGGGCAACAUUCCGAGGGGACCGUCCCCUCGGUAAUGGCGAAUGGGACCCA", "note": "[U27G G28C]", "self-cleavage": 0.554}, {"variant": "GGCCGGCAUGGUACCAGCCUCCUCGCUGGCGCCGGCUGGGCAACAUUCCGAGGGGACCGUCCCCUCUGUAAUGGCGAAUGGGACCCA", "note": "[C13A G67U]", "self-cleavage": 0.17}, {"variant": "GGCCGGCAUGGUCCCAGCCUCCUCGCUGGCUCCGGCUGGGCAACAUACCGAGGGGACCGUCCCCUCGGUAAUGGCGAAUGGGACCCA", "note": "[G31U U47A]", "self-cleavage": 0.406}, {"variant": "GGCCGGCAUGGUCCCAGCCUCCUCGCCGGCGCCGGCUGGGCAAAAUUCCGAGGGGACCGUCCCCUCGGUAAUGGCGAAUGGGACCCA", "note": "[U27C C44A]", "self-cleavage": 0.447}, {"variant": "GGCCCGCAUGGUCCCAGCCUCCUCGCUGGCGCCGGCUGGGCAACAUUCCGAGGGGACCGUCCCCUCGGUAAUGGCGAAUGGGACCCG", "note": "[G5C A87G]", "self-cleavage": 0.124}, {"variant": "GGCCGGCAUGGUCCCAGCCUCCUCGCUGGCGCCGGCUGGGCAAAAUUCCGAGGGGACCGUCCCCUCGGUAUUGGCGAAUGGGACCCA", "note": "[C44A A71U]", "self-cleavage": 0.81}, {"variant": "GGCCGGCAUGGUCCCAUCCUCCUCGCUGGCGCCGGCAGGGCAACAUUCCGAGGGGACCGUCCCCUCGGUAAUGGCGAAUGGGACCCA", "note": "[G17U U37A]", "self-cleavage": 0.185}, {"variant": "GGCCUGCAUGGUCCCAGCCUCCUCGCUGGCGCCGGCUGGGCAACAUUCCGAGGGGACCGUCCGCUCGGUAAUGGCGAAUGGGACCCA", "note": "[G5U C63G]", "self-cleavage": 0}, {"variant": "GGCCGGCAUGGUCCCAGCCUCCUCGCUGGCGCCCGCUGGGCAACAUUCCGAGGGGACCGUCCCCUCGGUAAUGGAGAAUGGGACCCA", "note": "[G34C C75A]", "self-cleavage": 0.131}, {"variant": "GGCCGGCAUGGUCCCAGCCUCCUAGCUGGCGCCGGCUGGGCAACAUUCCGAGGGGACCGUCCCCUCGGUAAUGACGAAUGGGACCCA", "note": "[C24A G74A]", "self-cleavage": 0.12}, {"variant": "GGCCGGCAUGGUCCCAGCCUCCUCGCUGGCGCCGGCUGGGCAACAUUCCCAGGGGACCGUGCCCUCGGUAAUGGCGAAUGGGACCCA", "note": "[G50C C61G]", "self-cleavage": 0.578}, {"variant": "GGCCGGCAUGGUCCCAGCCUCCUCGCUGGCGCCGGCUGGCCAACAUUCCGAAGGGACCGUCCCCUCGGUAAUGGCGAAUGGGACCCA", "note": "[G40C G52A]", "self-cleavage": 0.247}, {"variant": "GGCCGGCAUGGUCCCAGCCUCCUCGCUGGCGCCGUCUGGGCAACACUCCGAGGGGACCGUCCCCUCGGUAAUGGCGAAUGGGACCCA", "note": "[G35U U46C]", "self-cleavage": 0.0415}, {"variant": "GGCCGGCAUGGUCACAGCCUCCUCGGUGGCGCCGGCUGGGCAACAUUCCGAGGGGACCGUCCCCUCGGUAAUGGCGAAUGGGACCCA", "note": "[C14A C26G]", "self-cleavage": 0.831}, {"variant": "GGCCGGCAUGGUCCCAGCCUCCUCGCUGGCGCCGGAUGGGCAACAUUCCGAGGGGACCGUCCCCUCGGUAAUGGCGAGUGGGACCCA", "note": "[C36A A78G]", "self-cleavage": 0.0652}, {"variant": "GGCCGGCAUGGUCCCAGCCUCCUCGCUGGAGCCGGCUGGGCAACAUUCCGAGGGGAUCGUCCCCUCGGUAAUGGCGAAUGGGACCCA", "note": "[C30A C57U]", "self-cleavage": 0.587}, {"variant": "GGCCGGCAUGGUCCGAGCCUCCUCGCUGGCGCCGGCUGGGCAACAUUCCGAGGGGCCCGUCCCCUCGGUAAUGGCGAAUGGGACCCA", "note": "[C15G A56C]", "self-cleavage": 0.739}, {"variant": "GGCCGGCAUGGUCCCAGCCUCCUCGCUGGCGCCGACUGGGCAACAUUCCGAGGGGACCGUCCCCUCGGUAAUGGCGAUUGGGACCCA", "note": "[G35A A78U]", "self-cleavage": 0.253}, {"variant": "GGCCGGCAUGGUCCCAGCCUCCUCGCUGGCGCCGGCUGGGCAACAUUACGAGGGGACCGUCCCCUCGGUAAUGGCGAAUGGAACCCA", "note": "[C48A G82A]", "self-cleavage": 0.332}, {"variant": "GGCCGGCAUGGUCCCAGCCUCCUCGCUGGCGCCCGCUGGGCAACAUUCCGAGGGGACCGUCCCCUCGGUAAUGGCGAAUGGGAACCA", "note": "[G34C C84A]", "self-cleavage": 0}, {"variant": "GGCCGGCAUGGUCCCAGCCUCCUCGCUGGCGUCGGCUGGGCAACAUUCCGAGGGGACCGUCCCCUCGGUAAUGGCGAAUGGGACCCU", "note": "[C32U A87U]", "self-cleavage": 1.03}, {"variant": "GGCCGGCAUGGUCCCAGCCUCCUAGCUGGCGCCGGCCGGGCAACAUUCCGAGGGGACCGUCCCCUCGGUAAUGGCGAAUGGGACCCA", "note": "[C24A U37C]", "self-cleavage": 0.974}, {"variant": "GGCCGGCAUCGUCCCCGCCUCCUCGCUGGCGCCGGCUGGGCAACAUUCCGAGGGGACCGUCCCCUCGGUAAUGGCGAAUGGGACCCA", "note": "[G10C A16C]", "self-cleavage": 0.88}, {"variant": "GGCCGGCAUGGUCCCAGCCUCCUCGCUGGCGCCGGCUGGGCAACGUUCCGAGGGGACCGUCCCCUCGGUAAUGGCGCAUGGGACCCA", "note": "[A45G A77C]", "self-cleavage": 0.18}, {"variant": "GGCCGGCAUGGUCCCAGCCUCCUGGCUGGCGCCGGCUGGGCAACAUUCCGAGGGGACCGUCCCCUCGGUAGUGGCGAAUGGGACCCA", "note": "[C24G A71G]", "self-cleavage": 0.102}, {"variant": "GGCCGGCAUGGUCCCAGCCUCCUCGCUGGCGCCGGCUGGGCAACAUUUCCAGGGGACCGUCCCCUCGGUAAUGGCGAAUGGGACCCA", "note": "[C48U G50C]", "self-cleavage": 0.965}, {"variant": "GGCCGGCAUGGUCCCAGCCUCCUCGCUUGCGCCGGCUGGGCAACAUUCCGAGGGGACCGUCCCCUCGGUAAAGGCGAAUGGGACCCA", "note": "[G28U U72A]", "self-cleavage": 0}, {"variant": "GGCCGGCAAGGUCCCAGCCUCCUCGCUGGCGCCGGCUGGGCAACAUUCCGAGGGGACCGUCCCCUCGGUAAUGGCGAAUAGGACCCA", "note": "[U9A G80A]", "self-cleavage": 0.402}, {"variant": "GGCCGGCAUGGUCCCAGCCUCCUCGCUGGCGCCGGCUAGGCAACAUUCCGAGGGGACCGUCCCCUCGGAAAUGGCGAAUGGGACCCA", "note": "[G38A U69A]", "self-cleavage": 0.148}, {"variant": "GGCCGGCAUGGUCCCAGCCUCCUCGGUGGCGCCGGCUGGGCAACAUUCCGAGGGGACCGUCCCCUCGGUAAUGGGGAAUGGGACCCA", "note": "[C26G C75G]", "self-cleavage": 0.227}, {"variant": "GGCCGGCAUGGUCCCAGCCUCCACGCUGGCGCCGGCUGGGCAACAUUCCGAGGGGACCGUCCCCUCUGUAAUGGCGAAUGGGACCCA", "note": "[U23A G67U]", "self-cleavage": 0.849}, {"variant": "GGCCGGCAUGGUCCCAGUCUCCUCGCUGGCGCCGGCUGGGCAACAUUCCGUGGGGACCGUCCCCUCGGUAAUGGCGAAUGGGACCCA", "note": "[C18U A51U]", "self-cleavage": 0.701}]}]}
